B1: CPEB3 Ribozyme (parent)
chain: GGGGGCCACAGCAGAAGCGUUCACGUCGCGGCCCCUGUCAGAUUCUGGUGAAUCUGCGAAUUCUGCUGU

Variants of: B1
Assay: self-cleavage, relative activity (ratio to wild type); higher = more cleavage; co-transcriptional

Row | Variant | self-cleavage
1 | A23U U43C | 0.931
2 | A23U U43A | 0.954
3 | A23G C63U | 0.95
4 | A23G C63A | 0.681
5 | A23G C63G | 0.521
6 | A23U C39A | 0.87
7 | A23U C39U | 0.921
8 | A23U C39G | 1.02
9 | A23U C63G | 0.858
10 | A23U C63A | 0.886
11 | A23U C63U | 1.01
12 | A23G C33A | 0.679
13 | A23G C33G | 0.262
14 | A23G C33U | 0.939
15 | A23G G48C | 0.975
16 | A23G G48U | 0.972
17 | A23G G50C | 1.01
18 | A23G U26A | 0.773
19 | A23G U38G | 0.245
20 | A23G U38A | 0.897
21 | A23G U38C | 0.946
22 | A23G C66G | 0.594
23 | A23G C66U | 0.964
24 | A23G C66A | 0.597

Row | Variant | self-cleavage
25 | A23U G56A | 1.01
26 | A23U G56U | 0.955
27 | A23U G56C | 0.936
28 | A23U G50U | 0.958
29 | A23U G50C | 0.978
30 | A23U G50A | 1.01
31 | A23G G56C | 0.751
32 | A23G G56U | 0.914
33 | A23G U69A | 0.974
34 | A23G U69G | 1.04
35 | A23G U69C | 1.06
36 | A23G C35A | 0.215
37 | A23G C35G | 0.336
38 | A23G C34A | 0.627
39 | A23G C34U | 0.932
40 | A23U C27G | 0.164
41 | A23U C27A | 0.734
42 | A23U C27U | 0.29
43 | A23U U44A | 0.963
44 | A23U U44G | 0.882
45 | A23U U44C | 0.869
46 | A23G G31C | 0.237
47 | A23G U49A | 0.957
48 | A23G U49G | 1.03

Row | Variant | self-cleavage
49 | A23G U49C | 0.966
50 | A23G U44A | 0.923
51 | A23G U44C | 0.904
52 | A23G U44G | 1.02
53 | A23U A60C | 0.385
54 | A23U A60G | 0.642
55 | A23U A60U | 0.66
56 | A23G C29G | 0.211
57 | A23G G28U | 0.137
58 | A23U U36A | 0.222
59 | A23U U36G | 0.35
60 | A23U U36C | 0.996
61 | A23G G41A | 0.676
62 | A23G G41C | 0.581
63 | A23G G41U | 0.798
64 | A23U U26G | 0.92
65 | A23U U26A | 0.914
66 | A23U U26C | 1.04
67 | A23G G30A | 0.79
68 | A23G G30C | 0.432
69 | A23G G30U | 0.229
70 | A23U A51C | 0.995
71 | A23U A51U | 0.995
72 | A23G G65U | 0.554

Row | Variant | self-cleavage
73 | A23G G65C | 0.537
74 | A23G G65A | 0.752
75 | A23U C24A | 0.888
76 | A23G U46C | 0.906
77 | A23G C54U | 0.964
78 | A23G C54A | 0.712
79 | A23G C54G | 0.919
80 | A23U G47A | 1.02
81 | A23U G47U | 0.983
82 | A23G U67G | 0.992
83 | A23G U67A | 1.03
84 | A23G U67C | 0.925
85 | A23G U43A | 0.877
86 | A23G U43C | 0.937
87 | A23G U43G | 0.721
88 | A23G G37C | 0.214
89 | A23G G37U | 0.22
90 | A23G G37A | 0.254
91 | A23U C34A | 0.956
92 | A23U C34G | 0.819
93 | A23U G48U | 1.01
94 | A23U G48A | 0.984
95 | A23U G25U | 0.144
96 | A23U G25A | 0.214

Row | Variant | self-cleavage
97 | A23U G25C | 0.185
98 | A23G C57U | 0.418
99 | A23G C57G | 0.332
100 | A23U | 1
101 | A23G U55C | 0.789
102 | A23G U55G | 0.752
103 | A23G U55A | 0.879
104 | A23G U36A | 0.241
105 | A23G U36C | 0.891
106 | A23G U36G | 0.227
107 | A23G C45U | 0.991
108 | A23G C45G | 0.971
109 | A23U C29A | 0.8
110 | A23U C29G | 0.569
111 | A23U C29U | 0.437
112 | A23U G41U | 0.868
113 | A23U G41C | 0.912
114 | A23U G41A | 0.821
115 | A23U C32U | 1.01
116 | A23U C32G | 0.71
117 | A23G U53C | 0.8
118 | A23G U53A | 0.916
119 | A23U G28C | 0.217
120 | A23U G28U | 0.148

Row | Variant | self-cleavage
121 | A23U A52C | 1.04
122 | A23U A52U | 0.996
123 | A23U A52G | 0.642
124 | A23U C66U | 0.964
125 | A23U C66G | 0.848
126 | A23U A40G | 0.951
127 | A23U A40U | 0.924
128 | A23U A40C | 0.678
129 | A23U C33G | 0.773
130 | A23U C33A | 0.876
131 | A23G C32A | 0.436
132 | A23G C32U | 0.976
133 | A23U C35U | 0.974
134 | A23U C35G | 0.658
135 | A23G G25U | 0.177
136 | A23G G25A | 0.156
137 | A23G G68A | 0.97
138 | A23G G68U | 1
139 | A23G G68C | 0.971
140 | A23G G58C | 0.97
141 | A23U C45U | 0.975
142 | A23G U64A | 0.753
143 | A23U G68U | 1.03
144 | A23U G68C | 1.01

Row | Variant | self-cleavage
145 | A23U G68A | 0.989
146 | A23U G30U | 0.547
147 | A23U G30A | 0.96
148 | A23U G30C | 0.786
149 | A23G G47A | 0.996
150 | A23G G47U | 0.991
151 | A23G G47C | 0.944
152 | A23G C39G | 0.888
153 | A23G C39A | 0.785
154 | A23U G31C | 0.215
155 | A23U G31U | 0.842
156 | A23U C54G | 0.943
157 | A23U C54A | 0.901
158 | A23U C54U | 1.02
159 | A23U C57U | 0.28
160 | A23U C57A | 0.288
161 | A23G U62A | 0.948
162 | A23G U62G | 0.75
163 | A23G U62C | 0.667
164 | A23U G65C | 0.698
165 | A23U G65A | 0.885
166 | A23G U61C | 0.614
167 | A23U A59G | 0.972

Reference: the RNAGym collection of RNA variant scans (doi:10.7554/elife.80360)
